Values quoted from earlier work in US20090098130A1, “GLUCAGON-LIKE PROTEIN-1 RECEPTOR (GLP-1R) AGONIST COMPOUNDS” (priority 2007, published 2009).

B1: h38C2 IgG: humanized aldolase catalytic antibody h38c2 IgG1 (antibody, listed as Homo sapiens, V domains shown)
VH: EVQLVESGGGLVQPGGSLRLSCAASGFTFSNYWMSWVRQSPEKGLEWVSEIRLRSDNYATHYAESVKGRFTISRDNSKNTLYLQMNSLRAEDTGIYYCKTYFYSFSYWGQGTLVTVSS
VL: ELQMTQSPSSLSASVGDRVTITCRSSQSLLHTYGSPYLNWYLQKPGQSPKLLIYKVSNRFSGVPSRFSGSGSGTDFTLTISSLQPEDFAVYFCSQGTHLPYTFGGGTKVEIK
modifications: (1)..(30) FR1; (1)..(23) FR1
B2: m38C2 IgG: mouse monoclonal aldolase antibody with a reactive lysine (antibody, listed as Mus musculus, V domains shown)
VH: EVKLVESGGGLVQPGGTMKLSCEISGLTFRNYWMSWVRQSPEKGLEWVAEIRLRSDNYATHYAESVKGKFTISRDDSKSRLYLQMNSLRTEDTGIYYCKTYFYSFSYWGQGTLVTVSA
VL: DVVMTQTPLSLPVRLGDQASISCRSSQSLLHTYGSPYLNWYLQKPGQSPKLLIYKVSNRFSGVPDRFSGSGSGTDFTLRISRVEAEDLGVYFCSQGTHLPYTFGGGTKLEIK
modifications: (1)..(30) FR1; (1)..(23) FR1

Conditions: after incubation with β-diketone

Molecule | enaminone absorbance (λmax=318 nm)
B1 | showed the characteristic enaminone absorbance
B2 | showed the characteristic enaminone absorbance
